# Test results reported in the DeepSol protein solubility set.
# Assay: soluble on expression in E. coli; label from the status in PepcDB or PDB records
row,Sequence,soluble on expression in E. coli
1,MASPLRFDGRVVLVTGAGGGLGRAYALAFAERGALVVVNDLGGDFKGVGKGSSAADKVVEEIRRRGGKAVANYDSVEAGEKLVKTALDTFGRIDVVVNNAGILRDRSFSRISDEDWDIIQRVHLRGSFQVTRAAWDHMKKQNYGRIIMTASASGIYGNFGQANYSAAKLGLLGLANTLVIEGRKNNIHCNTIAPNAGSRMTETVMPEDLVEALKPEYVAPLVLWLCHESCEENGGLFEVGAGWIGKLRWERTLGAIVRKRNQPMTPEAVRDNWVKICDFSNASKPKSIQESTGGIIEVLHKIDSEGISQNHTGQVASAD,soluble
2,MGSDKIHHHHHHMTVKAKRFRIGVEGATTDGREIQREWLVQMAASYNPTVYTALINLEHIKSYLPESTFNRYGRVTGLVAEEIQDGPLAGKMALYADIEPTDALVELVKKGQKLFTSMEVSTKFADTGKAYLVGLGATDDPASLGTEMLAFSASAAHNPLANRKQNPENLFSEAVETLIELEEVQDEKPSLFARVTALFTKKEQTDEARFSDVHKAVELVASEQQNLSERTDKSLSEQDKRLSELESSLQEQLAAFAELEQKLSSEDSRKDYRQRAPGGDAPAGTLTNC,not soluble
3,MLESNENRIQIMSTIAKIYRAMSRELNRRLGELNLSYLDFLVLRATSDGPKTMAYLANRYFVTQSAITASVDKLEEMGLVVRVRDREDARKILIEITEKGLETFNKGIEIYKKLANEVTGDLSEDEVILVLDKISKILKRIEEISQ,soluble
4,MHGRLKVKTSEEQAEAKRLEREQKLKLYQSATQAVFQKRQAGELDESVLELTSQILGANPDFATLWNCRREVLQHLETEKSPEESAALVKAELGFLESCLRVNPKSYGTWHHRCWLLSRLPEPNWARELELCARFLEADERNFHCWDYRRFVAAQAAVAPAEELAFTDSLITRNFSNYSSWHYRSCLLPQLHPQPDSGPQGRLPENVLLKELELVQNAFFTDPNDQSAWFYHRWLLGRAEPHDVLCCVHVSREEACLSVCFSRPLTVGSRMGTLLLMVDEAPLSVEWRTPDGRNRPSHVWLCDLPAASLNDQLPQHTFRVIWTGSDSQKECVLLKDRPECWCRDSATDEQLFRCELSVEKSTVLQSELESCKELQELEPENKWCLLTIILLMRALDPLLYEKETLQYFSTLKAVDPMRAAYLDDLRSKFLLENSVLKMEYADVRVLHLAHKDLTVLCHLEQLLLVTHLDLSHNRLRALPPALAALRCLEVLQASDNALENVDGVANLPRLQELLLCNNRLQQSAAIQPLVSCPRLVLLNLQGNSLCQEEGIQERLAEMLPSVSSILT,soluble
5,MSLSRRPAYARLLDRAVRILAVRDHSEQELRRKLAAPIMGKNGPEEIDATAEDYERVIAWCHEHGYLDDSRFVARFIASRSRKGYGPARIRQELNQKGISREATEKAMRECDIDWCALARDQATRKYGEPLPTVFSEKVKIQRFLLYRGYLMEDIQDIWRNFADEGHHHHHH,soluble
6,MGQDRGFGFPTQRLCSLSSLALSHLGKQDLNLVSKTCGDTTDMFSTRGSYQVSTQVSQSYFDGYCGWVHGSSHLQQQFLPPQNQCMKQVPLQVDGVISKAEEQCSQKRFLVFDQSGDQTTLLLASDIRKSFETLKQHACPDMKEELQRSNKDLFVCHGMQGNSEPDLKEDSEELNALLYSEDESGYCSEEDEVTSADHSPSIVVSGREDQKTFLGSYGQPLNAKKRKILETSNESMRDAESSCGSCDNTRISFLKRSKLSSNKIGEEKIFETVSLLRSVVPGEELVDPILVIDRAIDYLKSLKMEAKNREA,soluble
7,MNLIDYKARERGIEVEMPDERGTSSSCSVCGHEDEDSRVERGLWKCDCCGIVAHGDVNGADNIRQKTLPVTPPLGGSGNGCLAQPCVIQFSRTRGFQPRAPAELEHHHHHH,soluble
8,MGSDKIHHHHHHMVGCLTLTLLVGCSAAEKPVEQVKQVKNTLTAKLATEEKMIEIDGQTIYFKKIGNEKPPLLMIHGFGGSSDGFQKIYSDLAKNHTIISVDALGFGRSSKPMDFYYSFPTHANLYYKLMKKLGYDSFAILGHSMGGEISLNLTYLYPEAVTHLILTDATGGPHTLVNKQGSPRPQLSTDLNTVSAITDYDESKVKFKRNDEEHYNKMKLWPRRLQINADEIKQPTLIIWGRNDSSVSWEEGETYHQFFKNSTFHIIEKGYHAPFRQEPQEFVGYVKDFFDKNPIIAEK,not soluble
9,MVLEKIEPAQEEHEKYHSNVKELSHKFGIPNLVARQIVNSCAQCQQKGEAIHGQVNAELGTWQMDCTHLEGKIIIVAVHVASGFIEAEVIPQESGRQTALFLLKLASRWPITHLHTDNGANFTSQEVKMVAWWIGIEQSFGVPYNPQSQGVVEAMNHHLKNQISRIREQANTIETIVLMAVHCMNFKRRGGIGDMTPSERLINMITTEQE,soluble
10,MGSDKIHHHHHHMSRVGFTTSIPVEVILAAGKTPVDLNNVFINSLSPQSMVDLAEEEGYPRNCCGWIKGLYATSLNYDMEALIAVMHGDCSNTQALMETLQLRNKKIIPFAFPFDRERSQLEAQVDKLMQFFEVDMEEVLKARARLEKIRSLCRELDRMTWRDNLVTGQENHYYLLCSSDFNGNPAEFEAELHSFVEEAGKRRPIQEEVRLAYIGVPPIFTDLHQLLELMGARVVFNEVQRQFSMPVESSDIIEQYLHYTYPYGAFARLEDIEEQLAVRDVQGVIHYTQTFCFRQIEDLIFRERLKIPFLTLEGDRPGKVDARSRMRLESFVSMLKK,not soluble
11,MSLDKKPVTTRKKVKVTGTETYINQSTGEIKEMQVIDIEERDFNFHKVWLEHIIHSMDLIGNQKTRLAFWLINNLNRDNVLIMTQRKIAEKTGISLETVRQTMKALMESGFLIKINSGAYCVNPDAVFKGGKTDRLNVLIQYRKSEQENTKTSEPTSEKDEPSLFNNEQLKAMEGHHHHHH,soluble
12,MKPLTDTDYIHALIAEGEHQQQDFKFEISDTRKIAKTLSAFANTDGGRLLIGVKDNGKIAGVRSDEEKYMIEAAAQLYCWPEVDYSMQTFHVEGRSVLVVQIDESEHKPVFAKDENGKSLAYIRIKDENILATPVHLRVWQQSGSPAGELIRYTEREQLLLDLLEENTSLSLNRYCRQAGISRRAAEHLLAKFIRFDIVEPIFENHKFYFRLKLEHHHHHH,soluble
13,MGSDKIHHHHHHAMSNKPVVLQGQIEATEIRISGKLPGRIDTFLVREGQYVKMGDTLVVINSPEAWAKFQQVNALEDIAKFQNKKIDDGTRRQIVRSVEELWNKSKSDLQLATVTYDRIQALYKDSVVTSQRKDEVEAMYKAAVAAERAAHQQFLLVKDGAQKEDKESARSLVDAARGTVNEVQALLMDARLTAPEDGQISTIYPKRGELVGAGTPIMSLVVLDDCHVVLNVREDYMPYFRMNENFMGDIPALDVKNKAFKINYISPLGSFATWRSTKQTGTYDMKTFEIHALPVEPMEGLRPGMSVLVNLDELK,not soluble
14,GPLGSPRYELGEELRDKIKQEPSFSNMVSAKKFYNKAIKDFTAPKEGAEVVSVKTHIMRPIDFMLMGLREEFNLYSEDGAHLSAPGTIRLLREKNLLPEEQIARIESVYNQAMSKRFELHAEHKKEHDEMPYSDAKAMLDEVAKIRELGVQRVTRIENLENAKKLWDNANSMLEKGNISGYLKAANELHKFMKEKNLKEDDLRPELSDKTISPKGYAILQSLWGAASDYSRAAATLTESTVEPGLVSAVNKMSAFFMDCKLSPNERATPDPDFKVGKSKILVGIMQFIKDVADPTSKIWMHNTKALMNHKIAAIQKLERSNNVNDETLESVLSSKGENLSEYLSYKYATKDEGREHRYTASTE,soluble
15,MYALAFDLKIEILKKEYGEPYNKAYDDLRQELELLGFEWTQGSVYVNYSKENTLAQVYKAINKLSQIEWFKKSVRDIRAFKVEDFSDFTEIVKS,not soluble
16,MSLEAKECKVQDILTENKKFIIPSYQRPYSWTVDNAEQLIDDIYKSSQSEENEYFIGSMICINKGQNQYEVVDGQQRLTTLSIIVSELKKIIPIQGIKDDLQKRVLPIDVYSDETDEPRLIVRKKEYDLYKYYILQDSKDYKPEKPSDTELVFISNAETIRDYLLRLSVDELKLLAKYILQNVYIVFVQTDDFASSFRLFNVLNSRGLPLSNADLLKNALFESASTHNKKSEQIESAWSQIEDMVGVRRLDKFLTLHKLSEKKDRDRVLQKGFEAFIENLQQQFDGDAIAMSLMLVNSAKNYTKILENDFEHSSIRRKIASLSNLGVDEWIPPVMAFMNRMARTEDFNLDDFSQFITAFEKVYMHGWLKKQIKSQREMVCYSALVAINNDMSFDSVINQINQHADNSGFIAALDEDLYEPRPNQVNLIKAILLRLDMEQQDESVIKTYTGRITIEHILPQALVNEYWINRFQPQEHVYWLHKIGNLTLISGSKNSEAQHYDFIKKKSIYEKLNSKSSFDLTKDVCNSSEWGLAELKMRHEKMKTQLKKLWLVEGHHHHHH,soluble
17,MAHHHHHHMLRRTQRWLLLNVSGESPSFRSKPVRNLQMDVQMSPYKEQFKDYWSTPVPWADREYGEKPKLGAPIPTRRAATAIVVGKNKHVAVDKVERGEDNDYKVLMMFREGKNRFVRDQFIFPSFPISLEDSSEDWEKILRRRGVKTAWNDLHHRLCAMRALFAQMNILLVPKEGGGLVEVEGPPGPKKWHLLVHSQPKAMKNLVDVLELPMETCLSQLLPFRCITTPTTETFRFDNLVYLVPFEKIPDVRFTISTVGEKLVWVSPMEAMARFNAGIMNMPTPNIIAISELNNECPIFADVTKRKPHDDYRSILPELYRHSQTKVATVLLPGDLMHPNTTEEDKAERYIRRFVYEKDYPFGIRAVFEERPATTEEMNEPLIQEAPKLLEEANEMDMVYADTPYPKREKQPGEIGRTRFPVPSYSFQEGAENEEGVIPVRNRNIESVGDLYSQTN,not soluble
18,MGSDKIHHHHHHMTKPPTLRPRFWETVPLDRMTPSEWEALCDGCGKCCLNKIEFEDTGEVAFTRIACRLLDGDSCRCSNYEIRRQFVPDCVQLSPATLPKIVYWMPRTCAYRLLHEGKSLPGWHYLLTGDRNSVHDAGASVQGWTVPEFEVAEEDWEDHIIEETP,not soluble
19,MAQLYYRYGTMNSGKTIEILKVAYNYEEQGKGVVIMTSALDTRDGVGYVSSRIGMKRPALAIEETTDIFGYIRDLPEKPYCVLVDEAQFLKRHHVYDLARVVDELDIPVMAFGLKNDFRNELFEGSKYLLLLADKIDEIKTICQYCKKKATMVLRTQDGLPVYDGEQIQIGGNETYISVCRKHYFAPMITSNKEQNYDNLEHHHHHH,soluble
20,MSLTDDLKVCNQTGVGEAINQIYKDDGRRCEGYESRDKKCLCISDNNTSLYAILSGHNGVTVAENALQEMAAELLLGQLNVCNTDEAVKELIRQSFMSVEKGYFDSINPHVATKTAIQLHLSADGMNQYEISQQFENVLQKLDSLNNALSVGSSAVLALIHRSHLYLGNIGNCRALLCKTDEHDTLTVTQLSVDHNLLNAEEAARLFRLGLMAQNFEGVPLYSTRCIGNYLGKAGYKDCNFLSSATAEPVIFEPEIVGGIQITPACRFLVLMSSGLCRALHEIFPGDASTGNRELVRMISEEFQNQSTLGGVAQSVVHRIVQAHHDTYMQLVEEHRSVTFNSRDDVTLLIRNFNYAEGHHHHHH,not soluble
21,MGSDKIHHHHHHASCEDDEVEYAPLAVTRVSTVLDREQGIDQANLAQYIIVQGTGLNAVNSILVNDVQVDLKDAYITSGEITFPIPRVIPGEINNLITLGSGNSTVTAPISVFIPELEVNGMFNEFTPAGDTMKVVGDYFDLYEITTESGQLFFGGKEVKITKSTGNSLSFVLPEDAVMGSKIKLVSPVCGEVTVPGKYMEKGNMLCDFDPFTGWGGSKYVIDGPVPAPYSGYFSRFKINKGDANDWDWNEVTTIAQCAVEYSPEVIADQNKYLLKFEVNTIKPLTKRQIRFYFSQINYDWEPFASGLALNTNGEWKTVSIDLGEMWKGDIPNDGVLQIMGNSWAEDTDICFDNFRIVPKD,not soluble
